Assay results published in the supplement of paper PMC9233669.
This sample holds only a part of the variants without activity.

Columns and labels:
biotinyl-Val-oxazolone = assay: self-aminoacylation, catalytic enhancement (BVO) (fold over background); higher = more active; k-Seq, kA / k0A0; sequences stand for … in GGGAAUGGAUCCACAUCUACGAAUUC…UUCACUGCAGACUUGACGAAGCUG
How it was run: (§1)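 Mutagenized RNA pools with a 21-nt variable region (0.43 μM) reacted with each biotinyl-aminoacyl-oxazolone at 2–1250 μM. Reactions ran in 50 μL HEPES/NaCl/KCl/MgCl2/CaCl2 buffer with 5% acetonitrile, pH 6.9–7.0, for 90 minutes at room temperature. Streptavidin-captured RNA was quantified by triplicate qPCR and Illumina sequencing, and per-sequence fraction reacted was fit to a pseudo-first-order model with 1000 bootstraps. Catalytic enhancement is median kA divided by the uncatalyzed rate, the low-activity peak of a bimodal Gaussian fit.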

biotinyl-Ile-oxazolone = assay: self-aminoacylation, catalytic enhancement (BIO) (fold over background); higher = more active; k-Seq, kA / k0A0; sequences stand for … in GGGAAUGGAUCCACAUCUACGAAUUC…UUCACUGCAGACUUGACGAAGCUG
How it was run: as §1

biotinyl-Leu-oxazolone = assay: self-aminoacylation, catalytic enhancement (BLO) (fold over background); higher = more active; k-Seq, kA / k0A0; sequences stand for … in GGGAAUGGAUCCACAUCUACGAAUUC…UUCACUGCAGACUUGACGAAGCUG
How it was run: as §1

biotinyl-Trp-oxazolone = assay: self-aminoacylation, catalytic enhancement (BWO) (fold over background); higher = more active; k-Seq, kA / k0A0; sequences stand for … in GGGAAUGGAUCCACAUCUACGAAUUC…UUCACUGCAGACUUGACGAAGCUG
How it was run: as §1

biotinyl-Met-oxazolone = assay: self-aminoacylation, catalytic enhancement (BMO) (fold over background); higher = more active; k-Seq, kA / k0A0; sequences stand for … in GGGAAUGGAUCCACAUCUACGAAUUC…UUCACUGCAGACUUGACGAAGCUG
How it was run: as §1

biotinyl-Phe-oxazolone = assay: self-aminoacylation, catalytic enhancement (BFO) (fold over background); higher = more active; k-Seq, kA / k0A0; sequences stand for … in GGGAAUGGAUCCACAUCUACGAAUUC…UUCACUGCAGACUUGACGAAGCUG
How it was run: as §1

Sequence	self-aminoacylation (biotinyl-Val-oxazolone)	self-aminoacylation (biotinyl-Ile-oxazolone)	self-aminoacylation (biotinyl-Leu-oxazolone)	self-aminoacylation (biotinyl-Trp-oxazolone)	self-aminoacylation (biotinyl-Met-oxazolone)	self-aminoacylation (biotinyl-Phe-oxazolone)
AUUCAUCUAGGUCCUCGGGUG [Fam2.2 aminoacylation ribozyme variant]	3.9	4	8.62	5.66	5.21	49.6
AUUCAUCUAGGUCUUCGGGUG [Fam2.2 aminoacylation ribozyme variant]	3.66	3.75	6.24	4.84	4.49	37.4
AUUCAUCUCGGUCAUCGGGUG [Fam2.2 aminoacylation ribozyme variant]	4.55	4.65	9.9	6.85	6.97	49.8
AUUCCCCGAGGUCAUCGGGUG [Fam2.2 aminoacylation ribozyme variant]	14	12.5	29.9	20.2	22.7	188
AUUCCCCUAGGACAUCGGGUG [Fam2.2 aminoacylation ribozyme variant]	6.82	6.12	9.47	8.25	7.14	44.8
AUUCCCCUAGGCCAUCGGGUG [Fam2.2 aminoacylation ribozyme variant]	9.59	8.31	19.3	12.5	13.6	119
AUUCCCCUAGGUCAACGGGUG [Fam2.2 aminoacylation ribozyme variant]	6.99	6.94	15.4	11.5	11.5	84.2
AUUCCCCUAGGUCAGCGGGUG [Fam2.2 aminoacylation ribozyme variant]	7.83	8.05	14.1	11	11.1	61.3
AUUCCCCUAGGUCAUCAGGUG [Fam2.2 aminoacylation ribozyme variant]	6.96	6.44	8.19	7.46	8.46	29.4
AUUCCCCUAGGUCAUCGGGAG [Fam2.2 aminoacylation ribozyme variant]	6.76	6.89	9.02	8.9	8.27	19.4
AUUCCCCUAGGUCAUCGGGCG [Fam2.2 aminoacylation ribozyme variant]	11.3	9.9	13.5	9.17	15.7	81.8
AUUCCCCUAGGUGAUCGGGUG [Fam2.2 aminoacylation ribozyme variant]	7.89	7.9	11.8	10.8	10.9	47.7
AUUCCCCUGAUCAUCGAGUGA [Fam2.1 aminoacylation ribozyme variant]	4.2	3.81	5.83	7.4	6.39	8.85
AUUCCCCUGGGUCAUCGGGUG [Fam2.2 aminoacylation ribozyme variant]	9.66	8.62	16.9	13.3	12.2	107
AUUCCCCUGGUAAUCGAGUGA [Fam2.1 aminoacylation ribozyme variant]	3.28	3.09	5.9	7.35	6.36	37.7
AUUCCCCUGGUCAACGAGUGA [Fam2.1 aminoacylation ribozyme variant]	4.67	4.6	7.82	8.98	8.04	49.5
AUUCCCCUGGUCAUCGAGGGA [Fam2.1 aminoacylation ribozyme variant]	1.55	1.42	1.56	1.99	1.29	1.62
AUUCCCUUGGUCAUCGAGUGA [Fam2.1 aminoacylation ribozyme variant]	6.58	6.22	12.3	14.7	11.8	71.8
AUUCGACUAGGUCAUCGGGUG [Fam2.2 aminoacylation ribozyme variant]	3.95	4.46	8.63	6.57	7.05	47.3
AUUCGCCUAGGACAUCGGGUG [Fam2.2 aminoacylation ribozyme variant]	3.02	2.29	4.25	3.67	3.03	19.1
AUUCGCCUAGGUAAUCGGGUG [Fam2.2 aminoacylation ribozyme variant]	2.43	2.02	3.88	2.77	3.62	28
AUUCGCCUAGGUCACCGGGUG [Fam2.2 aminoacylation ribozyme variant]	4.27	4.4	8.04	5.18	5.69	49

Sequence	self-aminoacylation (biotinyl-Val-oxazolone)	self-aminoacylation (biotinyl-Ile-oxazolone)	self-aminoacylation (biotinyl-Leu-oxazolone)	self-aminoacylation (biotinyl-Trp-oxazolone)	self-aminoacylation (biotinyl-Met-oxazolone)	self-aminoacylation (biotinyl-Phe-oxazolone)
AUUCGCCUAGGUCAUCCGGUG [Fam2.2 aminoacylation ribozyme variant]	6.7	6.5	10.9	10.3	7.99	78.7
AUUCGCCUAGGUCAUCGGGCG [Fam2.2 aminoacylation ribozyme variant]	3.59	3.22	5.67	4.35	4.99	2.39
AUUCGCCUAGGUCAUCGGGUG [Fam2.2 aminoacylation ribozyme variant]	23.1	26.2	63.8	37.3	45.8	364
AUUCGCCUAGGUCUUCGGGUG [Fam2.2 aminoacylation ribozyme variant]	5.82	5.33	8.57	9	7.49	55.9
AUUCGCCUGGGUCAUCGGGUG [Fam2.2 aminoacylation ribozyme variant]	7.88	6	15.8	14.1	12.9	63.1
AUUCGCCUGGUCAUCGAGUGA [Fam2.1 aminoacylation ribozyme variant]	3.17	3.01	4.99	6.48	4.4	16.6
AUUCGCUUAGGUCAUCGGGUG [Fam2.2 aminoacylation ribozyme variant]	4.24	4.11	8	6.47	7.02	52.5
AUUCGGCUAGGUCAUCGGGUG [Fam2.2 aminoacylation ribozyme variant]	3.7	3.06	4.58	4.77	3.87	24.4
AUUCUACUAGGUCAUCGGGUG [Fam2.2 aminoacylation ribozyme variant]	3.87	3.7	7.31	5.93	5.82	41.7
AUUCUCCUAGGCCAUCGGGUG [Fam2.2 aminoacylation ribozyme variant]	3.74	3.49	7	5.32	5.37	33
AUUCUCCUAGGGCAUCGGGUG [Fam2.2 aminoacylation ribozyme variant]	3.73	2.92	4.7	3.58	4.21	28.7
AUUCUCCUAGGUCAACGGGUG [Fam2.2 aminoacylation ribozyme variant]	3.61	3.79	8.2	5.38	6.57	46.7
AUUCUCCUAGGUCAUCCGGUG [Fam2.2 aminoacylation ribozyme variant]	6.42	6.71	12.2	9.8	9.16	65.5
AUUCUCCUAGGUCAUCGGGCG [Fam2.2 aminoacylation ribozyme variant]	3.43	3.24	5.06	4.23	3.97	13.6
AUUCUCCUAGGUCAUCGGGUG [Fam2.2 aminoacylation ribozyme variant]	8.06	8.11	17.7	12.3	13	82.4
AUUCUCCUAGGUCAUCGGGUU [Fam2.2 aminoacylation ribozyme variant]	3.07	3.08	4.14	3.6	3.79	14.8
AUUCUCCUAGGUCUUCGGGUG [Fam2.2 aminoacylation ribozyme variant]	4.77	4.96	8.25	7.39	7.28	44.1
AUUCUCCUAGGUGAUCGGGUG [Fam2.2 aminoacylation ribozyme variant]	3.62	3.17	4.94	4.65	3.62	26.4
AUUCUCCUAGGUUAUCGGGUG [Fam2.2 aminoacylation ribozyme variant]	3.88	4.08	8.02	6.28	6.52	40.2
AUUCUCCUAUGUCAUCGGGUG [Fam2.2 aminoacylation ribozyme variant]	5.62	5.5	11.6	8.54	9.01	65.9
AUUCUCCUCGGUCAUCGGGUG [Fam2.2 aminoacylation ribozyme variant]	7.28	8.05	15.5	11.6	11.3	108
